# Measured values reported in the supplement of paper PMC7877785.
# ± gives the uncertainty stated by the source.
# Test: self-splicing fitness, log relative to wild type (ln ratio); higher = more splicing; Tetrahymena group I intron in knt gene, E. coli kanamycin selection, DiMSum; sequences stand for … in CUCUCU…GGAGGGAAAAGUUAUCAGGCAUGCACCUGGUAGCUAGUCUUUAAACCAAUAGAUUGCAUCGGUUUAAAAGGCAAGACCGUCAAAUUGCGGGAAAGGGGUCAACAGCCGUUCAGUACCAAGUCUCAGGGGAAACUUUGAGAUGGCCUUGCAAAGGGUAUGGUAAUAAGCUGACGGACAUGGUCCUAACCACGCAGCCAAGUCCUAAGUCAACAGAUCUUCUGUUGAUAUGGAUGCAGUUCACAGACUAAAUGUCGGUCGGGGAAGAUGUAUUCUUCUCAUAAGAUAUAGUCGGACCUCUCCUUAAUGGGAGCUAGCGGAUGAAGUGAUGCAACACUGGAGCCGCUGGGAACUAAUUUGUAUGCGAAAGUAUAUUGAUUAGUUUUGGAGUACUCGUGGUCG
# Outline: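 A randomised library covering all eight P1ex-region intron nucleotides was built with the intron in the knt kanamycin-resistance gene on pET-22b(+) and held in E. coli BL21(DE3). Cells were grown overnight at 37°C or 30°C on LB agar, with or without 25 μg/mL kanamycin, plus 100 μg/mL carbenicillin, 50 μM IPTG and 0.2% rhamnose, and pooled colonies were amplicon-sequenced on an Illumina HiSeq 2500. DiMSum fitness is the error-weighted combination of wild-type-normalised replicate fold changes, kanamycin versus none.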
Sequence,self-splicing fitness (ln) (30 °C),self-splicing fitness (ln) (37 °C)
CUGCAGCAAUAUUACGCUUG,-3.55 ± 0.2,-2.25 ± 0.22
UUGAAGCAAUAUUACGUGAC,-3.1 ± 0.3,-1.29 ± 0.24
AGGAAGCAAUAUUACGCUCA,-0.332 ± 0.13,-0.339 ± 0.16
ACUCAGCAAUAUUACGUAAC,-2.79 ± 0.14,-1.2 ± 0.16
UAAAAGCAAUAUUACGAGCG,-0.13 ± 0.099,-0.191 ± 0.11
GAAAAGCAAUAUUACGCUAC,-2.67 ± 0.27,-2.37 ± 0.29
AAACAGCAAUAUUACGUAUU,-2.17 ± 0.089,-1.53 ± 0.097
GAUCAGCAAUAUUACGGGGU,-3.13 ± 0.3,-2.32 ± 0.26
ACCCAGCAAUAUUACGAUCC,-1.96 ± 0.079,-1.17 ± 0.12
GAUUAGCAAUAUUACGUCGU,-2.56 ± 0.19,-1.13 ± 0.17
AGACAGCAAUAUUACGUUGC,-3.73 ± 0.24,-3.26 ± 0.37
CAGCAGCAAUAUUACGUAAA,-3.26 ± 0.14,-1.95 ± 0.15
ACGGAGCAAUAUUACGCCGA,-1.94 ± 0.25,-1.49 ± 0.19
AAUUAGCAAUAUUACGUCUG,-1.72 ± 0.15,-0.251 ± 0.17
UGCGAGCAAUAUUACGCUUU,-2.38 ± 0.15,-3.02 ± 0.28
AACGAGCAAUAUUACGUAAU,-3.78 ± 0.15,-1.75 ± 0.12
UGUAAGCAAUAUUACGGGCC,-2.87 ± 0.41,-1.23 ± 0.41
AGCUAGCAAUAUUACGCAUG,-2.12 ± 0.16,-1.06 ± 0.12
CGACAGCAAUAUUACGUAGG,-0.919 ± 0.062,-0.934 ± 0.076
AAACAGCAAUAUUACGCCCA,-1.29 ± 0.15,-0.816 ± 0.15
UGUUAGCAAUAUUACGUUUA,-1.78 ± 0.09,-0.902 ± 0.098
GAUGAGCAAUAUUACGGUGC,,-1.53 ± 0.28
GCGUAGCAAUAUUACGUUCU,-2.08 ± 0.13,-1.38 ± 0.15
AUAAAGCAAUAUUACGUCCC,-0.201 ± 0.097,-0.0866 ± 0.13

Sequence,self-splicing fitness (ln) (30 °C),self-splicing fitness (ln) (37 °C)
AGGGAGCAAUAUUACGAUAA,,-2.23 ± 0.42
AUGCAGCAAUAUUACGUCGU,-0.894 ± 0.11,-1.66 ± 0.13
ACUCAGCAAUAUUACGAUUG,-2.74 ± 0.084,-1.59 ± 0.1
AAACAGCAAUAUUACGCAGG,-2.41 ± 0.15,-2.33 ± 0.15
UUACAGCAAUAUUACGCAUG,-1.18 ± 0.069,-0.0513 ± 0.087
CCUUAGCAAUAUUACGAUGA,-3 ± 0.43,-1.71 ± 0.28
UAAGAGCAAUAUUACGUAAU,-3.14 ± 0.15,-3.17 ± 0.29
AUGGAGCAAUAUUACGACCU,-0.472 ± 0.14,0.103 ± 0.18
AUAAAGCAAUAUUACGAUAG,-2.82 ± 0.15,-0.468 ± 0.14
AAAUAGCAAUAUUACGCCCA,-0.102 ± 0.18,-0.392 ± 0.17
AGAUAGCAAUAUUACGUACG,-1.38 ± 0.096,-0.00695 ± 0.11
UUAUAGCAAUAUUACGUGUA,-2.46 ± 0.18,-1.73 ± 0.16
CUUGAGCAAUAUUACGAAAA,-2.53 ± 0.38,-1.92 ± 0.38
GCACAGCAAUAUUACGCGUC,-3.73 ± 0.2,-0.646 ± 0.098
UUAAAGCAAUAUUACGGACA,-0.00448 ± 0.072,0.068 ± 0.11
CUGAAGCAAUAUUACGACCG,0.3 ± 0.15,0.854 ± 0.17
AGUGAGCAAUAUUACGAGUG,-3.75 ± 0.47,-1.02 ± 0.24
CCCCAGCAAUAUUACGUUUG,-4.17 ± 0.15,-2.51 ± 0.12
CGGAAGCAAUAUUACGGUCG,-1.55 ± 0.099,-0.978 ± 0.12
CAUCAGCAAUAUUACGGCUG,-1.76 ± 0.11,-0.0705 ± 0.16
UAAAAGCAAUAUUACGGAUC,-2.28 ± 0.29,-1.81 ± 0.24
CGAGAGCAAUAUUACGAAGG,-3.4 ± 0.22,-2.69 ± 0.32
GGGAAGCAAUAUUACGACAU,-0.662 ± 0.015,-0.341 ± 0.034
CGCCAGCAAUAUUACGGCAC,-2.37 ± 0.1,-1.04 ± 0.097

Sequence,self-splicing fitness (ln) (30 °C),self-splicing fitness (ln) (37 °C)
AUCAAGCAAUAUUACGAGAU,-2.81 ± 0.16,-2.67 ± 0.21
UCGUAGCAAUAUUACGUAGG,-2.71 ± 0.17,-0.631 ± 0.15
GGAUAGCAAUAUUACGGGCC,-2.56 ± 0.35,-1.65 ± 0.23
UAUCAGCAAUAUUACGUGCU,-3.64 ± 0.21,-2.1 ± 0.16
CCCAAGCAAUAUUACGAAAU,-3.19 ± 0.25,-2.35 ± 0.18
CGCAAGCAAUAUUACGUCGG,-0.371 ± 0.061,-0.192 ± 0.089
GACAAGCAAUAUUACGACGU,-0.139 ± 0.065,-0.167 ± 0.074
UCCCAGCAAUAUUACGAUGA,-0.0138 ± 0.055,0.23 ± 0.069
UUAGAGCAAUAUUACGAUGU,-2.59 ± 0.41,-2.43 ± 0.41
GGCGAGCAAUAUUACGUAGA,-2.07 ± 0.093,-1.27 ± 0.12
UGCGAGCAAUAUUACGGGAA,-3.87 ± 0.38,-2.5 ± 0.24
UUAAAGCAAUAUUACGUAGG,-1.29 ± 0.11,0.067 ± 0.13
UCCCAGCAAUAUUACGAGCU,-3.05 ± 0.17,-2.18 ± 0.2
UGUGAGCAAUAUUACGCUUA,-2.52 ± 0.27,-2.85 ± 0.27
UAUUAGCAAUAUUACGUGGC,,-1.84 ± 0.39
CUCCAGCAAUAUUACGUUAU,-3.58 ± 0.22,-3.38 ± 0.28
CCUCAGCAAUAUUACGCCGA,-3.12 ± 0.24,-3.48 ± 0.27
CUGCAGCAAUAUUACGGGCG,-1.3 ± 0.059,-0.522 ± 0.073
UGUUAGCAAUAUUACGGAGG,-2.3 ± 0.45,
AUAUAGCAAUAUUACGUACA,-1.07 ± 0.14,-0.785 ± 0.16
GGCGAGCAAUAUUACGGAUU,-1.21 ± 0.17,-1.06 ± 0.24
UCGGAGCAAUAUUACGGCGG,-1.42 ± 0.11,-0.955 ± 0.17
GUAAAGCAAUAUUACGUGAG,-2.03 ± 0.084,-0.98 ± 0.1
CCGGAGCAAUAUUACGGGUU,-3.85 ± 0.39,-2.67 ± 0.37

Sequence,self-splicing fitness (ln) (30 °C),self-splicing fitness (ln) (37 °C)
CCUUAGCAAUAUUACGGCUU,-3.99 ± 0.37,-1.99 ± 0.2
UAAAAGCAAUAUUACGACUG,0.248 ± 0.1,-0.671 ± 0.12
CUCUAGCAAUAUUACGCAGA,-4.08 ± 0.31,-3.59 ± 0.22
CUGAAGCAAUAUUACGUAAA,-2.54 ± 0.33,-1.7 ± 0.46
UGUGAGCAAUAUUACGAUCG,-1.36 ± 0.1,0.456 ± 0.17
AAAGAGCAAUAUUACGGACU,-1.36 ± 0.12,-1.59 ± 0.16
CUUAAGCAAUAUUACGGGAC,-3.6 ± 0.28,-1.26 ± 0.13
UGGAAGCAAUAUUACGCAGA,-2.85 ± 0.21,-0.966 ± 0.14
CCAUAGCAAUAUUACGGCGA,-2.03 ± 0.26,-1.92 ± 0.23
AUGAAGCAAUAUUACGAUUA,-0.416 ± 0.082,0.189 ± 0.12
UGGCAGCAAUAUUACGCUAG,-1.41 ± 0.077,-0.514 ± 0.11
GAGCAGCAAUAUUACGAGAU,-3.68 ± 0.18,-2.64 ± 0.17
GUUUAGCAAUAUUACGACAC,-0.84 ± 0.091,0.0746 ± 0.14
UCUGAGCAAUAUUACGAGUG,-3.98 ± 0.4,-1.24 ± 0.22
AGCUAGCAAUAUUACGAGUC,-3.89 ± 0.22,-2.08 ± 0.19
AUGCAGCAAUAUUACGACAU,-0.23 ± 0.012,0.215 ± 0.032
CCCCAGCAAUAUUACGAAUG,-4.11 ± 0.21,-2.3 ± 0.15
AGCAAGCAAUAUUACGAGCG,0.283 ± 0.061,-0.223 ± 0.076
CGUUAGCAAUAUUACGUGCU,-2.71 ± 0.2,-1.64 ± 0.21
AUGCAGCAAUAUUACGCCCA,-1.11 ± 0.12,0.0949 ± 0.14
UUGAAGCAAUAUUACGAGUC,-3.73 ± 0.32,-2.8 ± 0.38
AAAAAGCAAUAUUACGUCGA,-1.05 ± 0.067,-0.415 ± 0.082
GAUUAGCAAUAUUACGCUCU,-1.26 ± 0.41,-0.272 ± 0.27
CAACAGCAAUAUUACGUUGG,-2.86 ± 0.096,-1.5 ± 0.095
